Reference: PMC5664571

Molecular target: E. coli RNA polymerase holoenzyme saturated with sigma70 (Escherichia coli) (UniProt P0A7Z4+P0A8V2+P0A8T7+P0A800+P00579)
Test: EMSA
Details: EMSA: 10 nM DNA, 0-170 nM RNAP, binding buffer (5X: 750 mM KCl, 0.5 mM DTT, 0.5 mM EDTA, 50 mM Tris pH 7.4; 1X = 150 mM KCl, 0.1 mM DTT, 0.1 mM EDTA, 10 mM …)

Substance: CCAGGATACATAGATTACCACAACTCCGAGCCCTTCCACCACCTATGGAAAATTTTTTTAAAAAAAAAACTTGACAGCTAGCTCAGTCCTAGGTATAATGCTAGCAGCTGTCACCGGATGTGCTTTCCGGTCTGATGAGTCCGTGAGGACGAAACAGCCTCTACAAATAATTTTGTTTAATAAGTCCAATAGTTTATAAGGAAAGAATTACCTATGCGTAAAGGCGAAGAGCTGTTCACTGGTGTCGTCCC (double strand) [J23119 + UP]
- Kd: 42 nM

Substance: J23115 + UP
- Kd: 38.1 nM

Substance: CCAGGATACATAGATTACCACAACTCCGAGCCCTTCCACCACCTATGGAAAATTTTTTTAAAAAAAAAACTTGACAGCTAGCTCAGTCCTAGGTACTGTGCTAGCAGCTGTCACCGGATGTGCTTTCCGGTCTGATGAGTCCGTGAGGACGAAACAGCCTCTACAAATAATTTTGTTTAATAAGTCCAATAGTTTATAAGGAAAGAATTACCTATGCGTAAAGGCGAAGAGCTGTTCACTGGTGTCGTCCC (double strand) [J23102 + UP]
- Kd: 44.8 nM

Substance: CCAGGATACATAGATTACCACAACTCCGAGCCCTTCCACCACCTATATTTGCTGCTCGTAAAAAAAAAACCTGACAGCTAGCTCAGTCCTAGGTATAATGCTAGCAGCTGTCACCGGATGTGCTTTCCGGTCTGATGAGTCCGTGAGGACGAAACAGCCTCTACAAATAATTTTGTTTAATAAGTCCAATAGTTTATAAGGAAAGAATTACCTATGCGTAAAGGCGAAGAGCTGTTCACTGGTGTCGTCCC (double strand) [J23108 + 1/2UP]
- Kd: 22 nM

Substance: J23115 + 1/2UP
- Kd: 51.7 nM

Substance: J23109
- Kd: 46 nM

Substance: CCAGGATACATAGATTACCACAACTCCGAGCCCTTCCACCACCTATATTTGCTGCTCGTAAAAAAAAAACTTGACAGCTAGCTCAGTCCTAGGTACTGTGCTAGCAGCTGTCACCGGATGTGCTTTCCGGTCTGATGAGTCCGTGAGGACGAAACAGCCTCTACAAATAATTTTGTTTAATAAGTCCAATAGTTTATAAGGAAAGAATTACCTATGCGTAAAGGCGAAGAGCTGTTCACTGGTGTCGTCCC (double strand) [J23102 + 1/2UP]
- Kd: 45.5 nM

Substance: CCAGGATACATAGATTACCACAACTCCGAGCCCTTCCACCACCTATATTTGCTGCTCGTAAAAAAAAAACTTGACAGCTAGCTCAGTCCTAGGTATAATGCTAGCAGCTGTCACCGGATGTGCTTTCCGGTCTGATGAGTCCGTGAGGACGAAACAGCCTCTACAAATAATTTTGTTTAATAAGTCCAATAGTTTATAAGGAAAGAATTACCTATGCGTAAAGGCGAAGAGCTGTTCACTGGTGTCGTCCC (double strand) [J23119 + 1/2UP]
- Kd: 21 nM

Substance: J23109 + 1/2UP
- Kd: 64.8 nM

Substance: CCAGGATACATAGATTACCACAACTCCGAGCCCTTCCACCACCTATGGAAAATTTTTTTAAAAAAAAAACCTGACAGCTAGCTCAGTCCTAGGTATAATGCTAGCAGCTGTCACCGGATGTGCTTTCCGGTCTGATGAGTCCGTGAGGACGAAACAGCCTCTACAAATAATTTTGTTTAATAAGTCCAATAGTTTATAAGGAAAGAATTACCTATGCGTAAAGGCGAAGAGCTGTTCACTGGTGTCGTCCC (double strand) [J23108 + UP]
- Kd: 31.4 nM

Substance: J23112
- Kd: 50.8 nM

Substance: J23109 + UP
- Kd: 7.44 nM

Substance: J23112 + UP
- Kd: 12.6 nM

Substance: J23115
- Kd: 55 nM

Substance: J23112 + 1/2UP
- Kd: 68.2 nM
